Biological target: SARS-CoV-2 S receptor-binding domain (SRBD), residues 319-541 (SARS-CoV-2) (UniProt P0DTC2)
Test: ELISA on coated antigen

rCR3022 (recombinant form of the cross-reactive SARS-CoV SRBD mAb CR3022) (antibody)
EC50: 1.1 ng/mL

Reference: patent US20210300999A1
